Test results: patent US20260263599A1 (AUTOLUS, published 2026)
Numbering of substitutions follows the chain as printed.

B1: Jovi Hum 8 (antibody, V domains shown)
VH: QVQLVQSGAEVKKPGASVKVSCKASGYTFTGYVMHWVRQAPGQGLEWMGFINPYNDDIQSNERFRGRVTMTRDTSISTAYMELSRLRSDDTAVYYCARGAGYNFDGAYRFFDFWGQGTMVTVSS
VL: DIVMTQSPLSLPVTPGEPASISCRSSQRLVHSNGNTYLHWYLQKPGQSPRLLIYRVSNRFPGVPDRFSGSGSGTDFTLKISRVEAEDVGVYYCSQSTHVPYTFGQGTKLEIK
notes: also called H-AF 1; humanised antibody with H-AF062256 VH and 3aaz VL
B2: Jovi Hum 16 (antibody, V domains shown)
VH: B1 VH with T74K
VL: B1 VL
notes: also called H-AF 2
B3: Jovi Hum 18 (antibody, V domains shown)
VH: B1 VH with R72S, T74K
VL: B1 VL
notes: also called H-AF 4
B4: Jovi Hum 27 (antibody, V domains shown)
VH: B1 VH with V20M, M48I
VL: B1 VL
notes: also called H-AF 13
B5: Jovi Hum 26 (antibody, V domains shown)
VH: B1 VH with V20M, R72S, T74K
VL: B1 VL
notes: also called H-AF 12
B6: Jovi Hum 21 (antibody, V domains shown)
VH: B1 VH with M48I, R72S
VL: B1 VL
notes: also called H-AF 7
B7: Jovi Hum 17 (antibody, V domains shown)
VH: B1 VH with R72S
VL: B1 VL
notes: also called H-AF 3
B8: Jovi Hum 19 (antibody, V domains shown)
VH: B1 VH with M48I
VL: B1 VL
notes: also called H-AF 5
B9: Jovi Hum 20 (antibody, V domains shown)
VH: B1 VH with M48I, T74K
VL: B1 VL
notes: also called H-AF 6

molecular target: T1, T Cell Receptor Beta Constant 2 (TRBC2) (human, UniProt A0A5B9 1-144, limits assumed); experiment: ELISA
T1 construct: ELISA antigen; also called TCR beta constant region 2
T1 sequence (A0A5B9 1-144 limits assumed): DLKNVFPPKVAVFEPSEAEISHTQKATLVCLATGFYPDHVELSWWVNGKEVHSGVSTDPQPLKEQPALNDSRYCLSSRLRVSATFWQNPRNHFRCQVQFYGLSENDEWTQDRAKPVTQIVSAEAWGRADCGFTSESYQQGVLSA

Binding result, no binding:
B1, B2, B3, B4, B5, B6, B7, B8, B9
